In patent publication US9259432B1, “Composition and methods for targeted delivery of a therapeutic compound to the brain or spinal cord of a subject for treatment of neurodegenerative diseases” (Parminder J. S. Vig, priority 2011, dated 2016):

Assays:
Format in all cases: cell-based
[1] = test system: differentiated GFP-ATXN1[82Q] SHSY5Y cells; assay: Oxyblot of S100B induced oxidized proteins; settings: 5 μM S100B 2 hrs; compared to GFP-ATXN1[30Q] cells
Procedure: FIG. 16: (a) GFP-ATXN1[82Q] and (b) GFP-ATXN1[30Q] SHSY5Y stable cells were placed on 12-well plates and subjected to treatment with 25 nM TPA for 3 days to produce differentiated SHSY5Y cell lines. Next, the cells were pretreated with 50 μM Synb1-ELP-TRTK for 1 hr then treated with 5 μM S100B for 2 hrs or treated with 150 μM H2O2 for 2 hrs, where control cells were treated with serum free media for 3 hrs. Then the cells were lysed and analyzed with the Oxyblot kit and a β-tubulin antibody. Shown is the resulting oxyblot/western blot data. (c) Optical densities of the protein bands were taken using ImageJ software. Graphs shown the ratio of oxidized protein/β-tubulin protein normalized to the control. Statistics were taken using the student's t-test. * GFP-ATXN1[82Q]: S100B vs Synb1-ELP-TRTK+S100B, P<0.05. ψ GFP-ATXN1[82Q]: H2O2 vs GFP-ATXN1[30Q]: H2O2, P<0.05.
GFP-ATXN1[82Q] or GFP-ATXN1[30Q] stable cells were placed on 12-well plates at a concentration of 60,000 cells per well. Cells were treated with 25 nM TPA for 3 days to produce differentiated SHSY5Y cell lines. […] Cell lysates were analyzed with the Oxyblot kit according to manufacturer's protocol ([…]) and with a β-tubulin antibody (Sigma), where 5 μgs of protein was loaded in each well of 4-20% acrylamide gel (Bio-Rad Laboratories, Hercules, Calif., USA). […]

[2] = test system: differentiated GFP-ATXN1[82Q] SHSY5Y cells; assay: Neurite changes after S100B treatment, mutant ataxin-1 cells; settings: 3.0 μM S100B 48 hrs, vs untreated
Procedure: FIG. 15: GFP-ATXN1[82Q] SHSY5Y stable cells were placed on 2-well slides and subjected to treatment with 25 nM TPA for 3 days to produce differentiated SHSY5Y cells. Next, slides were fixed and probed with (a &b) GFP, (a) Synaptophycin and (b) RAGE antibodies and fluorescent secondary antibodies Alexa 488 and Alexa 546 followed by DAPI staining. Scale Bars: […]. Differentiated SHSY5Y cells were treated with 3.0 μM S100B for 48 hrs and neurite changes were visualized under the microscope. (c) Data is shown as MEAN±STDEV of the percentage of cells with neurites, n=100. (d) Data is shown as MEAN±SE of neurite length, n=100. Statistics were taken using student's t-test. *P<0.05.
SHSY5Y cells (Invitrogen, Carlsbad, Calif., USA) were maintained in DMEM/F12 media (Fisher, Houston, Tex., USA) supplemented with 15% FBS, penicillin-streptomycin (Sigma), and grown in an incubator at 37° C. in the presence of 5% CO2. S100B was labeled with Alexa 488 labeling kit (Invitrogen) to produce 488-S100B. […] Next, cells were washed then treated with 1 μM 488-S100B for 3 hrs and S100B uptake was analyzed by Epi-fluorescence or by Beckman Cytometric FC 500 flow cytometer as previously described (Bidwell et al., 2009). For flow cytometry experiments, 488-S100B uptake was measured by quenching extracellular fluorescence by coating the cells with Trypan Blue (Fisher) as described previously (Bidwell et al., 2009). […]

[3] = test system: differentiated GFP-ATXN1[30Q] SHSY5Y cells; assay: Neurite changes after S100B treatment, normal ataxin-1 cells; settings: 3.0 μM S100B 48 hrs, vs untreated

B1: S100B: glial secreted EF-hand calcium binding protein, purchased from Sigma-Aldrich; applied to cells as neurotoxic stimulus (protein, UniProt P04271 2-92, looked up)
Protein S100-B: SELEKAMVALIDVFHQYSGREGDKHKLKKSELKELINNELSHFLEEIKEQEVVDKVMETLDNDGDGECDFQEFMAFVAMVTTACHEFFEHE
level of oxidized proteins after S100B treatment [1]: greater level of oxidized proteins
neurite length [2]: significantly reduced
percentage of cells with neurites [2]: significant reduction
effect on neurites (percentage of cells with neurites, neurite length) [3]: no significant effect
